Source: US20250304677A1 (VIB VZW, published 2025)
Positions count from the first letter of the chain named. Names may count otherwise. One block for each binder: values may come before it.

What was measured:
[1] = target: T1, mouse folate receptor alpha (mFRα), recombinant protein (mouse, UniProt P35846 25-232); experiment: ELISA on mouse FRα, anti-VHH detection
T1 construct: Bought recombinant proteins (e.g. biotinylated, Acro Biosystems FO1-M82E9); also called mFOLR1; Ms FOLR1
In short: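 Binding of VHH constructs to mouse folate receptor alpha across a range of doses was measured by ELISA, with an anti-VHH reagent used for detection. The EC50 was taken from the dose-response curve.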

[2] = target: T2, human folate receptor alpha (hFRα), recombinant protein (human, UniProt P15328 25-233); experiment: competition AlphaLISA against 2MFR67-Flag3-His6 on human FRα
T2 construct: Bought recombinant proteins (His-tagged, or biotinylated via Avi-tag, e.g. AcroBiosystems FO1-H82E2, F01-H52H1); also called hFOLR1; huFOLR1
Description: Secondly, the variants were analysed for the capacity to compete with binding of family 3 VHH 2MFR67 to human FRα in a competition AlphaLISA, which is a homogeneous assay without wash steps. In here, human FRα biotinylated through an Avi-tag ^{∘}FO1-H82E2, AcroBiosystems) is captured on streptavidin coated Alpha Donor beads ^{∘}Perkin Elmer, Cat nr. 6760002), while the 2MFR67 is captured on anti-Flag antibody AlphaLISA acceptor beads ^{∘}Perkin Elmer, Cat nr. AL112C). Binding of 2MFR67 to the FRα leads to an energy transfer from one bead to the other, ultimately producing a fluorescent signal. To each well of white low binding 384-well microtitre plates ^{∘}F-bottom, Greiner Cat nr 781904), 5 μl of serial-diluted VHHs are mixed with 5 μl of 2.5 nM monovalent 2MFR67-Flag3-His6 and 5 μl of 15 nM biotinylated human FRα protein. After an incubation for 1 hour at room temperature, streptavidin coated Alpha Donor beads and anti-Flag AlphaLISA acceptor beads were added to a final concentration of 20 μg/mL each in a final volume of 25 μl for an incubation of 1 hour at room temperature in the dark. Interaction between beads was assessed after illumination at 680 nm and reading at 615 nm of on an Ensight instrument. Curve fitting is done in Graphpad Prism 9.0 using 4PL non-linear regression analysis.

[3] = target: T1, mouse folate receptor alpha (mFRα), …; experiment: BLI, Avi-biotinylated FRα on streptavidin biosensors, VHH 100 nM
Description: (§1) The binding of humanized variants of 2HFO42 was assessed by kinetic binding analysis to mouse and human FRα protein, biotinylated via an Avi-tag, captured on streptavidin biosensors by biolayer interferometry ^{∘}BLI), essentially as described earlier. VHHs were analysed at 100 nM concentration, and off-rates were determined using fitting of 1:1 langmurian interaction. Dissociation constants were compared to 2HFO42^{∘}Q1E, Q5V, Q108L) ^{∘}P101500004) and 2MFR67 ^{∘}Q1E, Q5V, Q108L) ^{∘}P0150000), respectively.

[4] = target: T2, human folate receptor alpha (hFRα), …; experiment: as above
Description: as §1

[5] = target: T1, mouse folate receptor alpha (mFRα), …; experiment: BLI, purified VHH
In short: (§2)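 Affinity-optimised VHH variants were produced as flag3-His6-tagged proteins in TG-1 E. coli at 0.5 L scale. They were purified from the periplasmic fraction on Ni Sepharose FastFlow columns, desalted, and checked for purity by SDS-PAGE. Off-rates to human, mouse and cynomolgus folate receptor alpha were then determined by biolayer interferometry.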

[6] = target: T3, cynomolgus folate receptor alpha, recombinant (cynomolgus, UniProt A0A2K5U044 25-233); experiment: BLI, purified VHH
T3 construct: also called cyFOLR1; cynomolgus FRα
In short: as §2

[7] = target: T2, human folate receptor alpha (hFRα), …; experiment: BLI, purified VHH
In short: as §2

[8] = target: T4, human folate receptor alpha expressed on cells (transfected HEK293T, HeLa, MCF7, MDA-MB-231) (human, UniProt P15328 25-234); experiment: flow cytometry on HeLa cells, anti-Flag detection
T4 construct: HEK293T transiently transfected with human FOLR1; also called native human FRα; cell-expressed human FOLR1
Description: EC₅₀ values are found in Table 9. Detection of VHH cell binding was done through anti-Flag M2 mIgG1 followed by anti-mFc-PE in flow cytometry. Results are depicted as mean fluorescence intensity ^{∘}MFI).
(§3) Off-rates of purified variants were determined to human, mouse, and cynomolgus FRα in BLI. In addition, binding of the affinity optimised variants to cell-expressed human FRα on HeLa cells was determined by flow cytometry ^{∘}FIG. 10 B).

[9] = target: T1, mouse folate receptor alpha (mFRα), …; experiment: BLI, Avi-biotinylated FRα
Description: (§4) Purified VHHs ^{∘}100 nM) were analysed for binding to avi-tagged biotinylated FRα protein captured on streptavidin-biosensors via BLI.
as §3

[10] = target: T2, human folate receptor alpha (hFRα), …; experiment: BLI, Avi-biotinylated FRα
Description: as §4, §3

[11] = target: T1, mouse folate receptor alpha (mFRα), …; experiment: BLI, VHH captured by anti-FLAG antibody on mouse Fc biosensors
In short: (§5)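 Biolayer interferometry was used to measure binding of VHHs to human, mouse and rhesus monkey folate receptor alpha. Each VHH was first captured on mouse Fc biosensors with an anti-FLAG tag antibody. A 1:1 binding model was applied to derive kon, koff and the equilibrium dissociation constant (KD).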

[12] = target: T5, rhesus monkey folate receptor alpha, recombinant (rhesus monkey, UniProt F7BP60 25-233); experiment: as above
T5 construct: also called rhFolR1; rhesus macaque FRα
In short: as §5

[13] = target: T1, mouse folate receptor alpha (mFRα), …; experiment: BLI
In short: (§6)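 Biotinylated human and mouse folate receptor alpha were immobilised on streptavidin biosensors, and off-rates were read by biolayer interferometry, with a 1:1 binding model applied in the calculation. Each variant's koff is expressed as a signed fold change relative to its wild-type VHH, positive as wild-type over variant for a better off-rate and negative as variant over wild-type for a worse one.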

[14] = target: T2, human folate receptor alpha (hFRα), …; experiment: BLI
In short: as §6

[15] = target: T2, human folate receptor alpha (hFRα), …; experiment: BLI, VHH captured by anti-FLAG antibody on mouse Fc biosensors
In short: as §5

[16] = target: T1, mouse folate receptor alpha (mFRα), …; experiment: BLI tandem binning on mouse FRα; competitor (1st association) 2MFR32
Text: (§7) VHHs that share high sequence identity in the CDR3 region, a VHH family, are derived from the same B-cell lineage and diverged from each other due to somatic hypermutation or affinity maturation. Typically, VHHs from the same family recognize the same epitope on the target, but may differ in other characteristics ^{∘}De Genst et al 2006 PNAS 103:4586-4591; De Gents et al 2005 J Biol Chem 280:14114-14121). To study whether the VHHs from the different families bound different epitopes, epitope binning was performed using a tandem binding approach in BLI. One VHH from each family was allowed to bind to mouse FRα on the biosensor, followed by binding of the second VHH ^{∘}Table 4).
(§8) Competition between VHHs from different complementarity determining region ^{∘}CDR) 3 families was assessed in a tandem binding assay using biolayer interferometry ^{∘}BLI). Streptavidin biosensors were loaded with biotinylated mouse FRα ^{∘}Acro Biosystems, Cat.nr. FO1-M82E9), followed by binding of anti-FRα VHHs ^{∘}VHH in first association). The biosensors were then transferred to a solution containing a second VHH mixed 1:1 with the first VHH ^{∘}VHH in second association). Using the FortéBio Data Analysis Software the absolute additional binding signal for the second association on top of the first association was calculated. The data were normalized per VHH in first association using the following formula: ^{∘}signal-self)/^{∘}maximum-self) with self being the value of the VHH in first association in combination with the same VHH in second association.

[17] = target: T1, mouse folate receptor alpha (mFRα), …; experiment: BLI tandem binning on mouse FRα; competitor (1st association) 2HFO19
Text: as §7, §8

[18] = target: T1, mouse folate receptor alpha (mFRα), …; experiment: BLI tandem binning on mouse FRα; competitor (1st association) 3MFR60
Text: as §7, §8

[19] = target: T1, mouse folate receptor alpha (mFRα), …; experiment: BLI tandem binning on mouse FRα; competitor (1st association) 2HFO42
Text: as §7, §8

T1 sequence (P35846 25-232 limits assumed): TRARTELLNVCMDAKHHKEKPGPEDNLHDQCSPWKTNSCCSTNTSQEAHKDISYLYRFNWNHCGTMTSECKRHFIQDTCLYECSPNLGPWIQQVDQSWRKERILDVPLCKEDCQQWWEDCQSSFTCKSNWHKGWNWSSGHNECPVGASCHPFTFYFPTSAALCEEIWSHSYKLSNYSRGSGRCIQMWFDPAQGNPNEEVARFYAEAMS
T4 sequence (P15328 25-234 limits assumed): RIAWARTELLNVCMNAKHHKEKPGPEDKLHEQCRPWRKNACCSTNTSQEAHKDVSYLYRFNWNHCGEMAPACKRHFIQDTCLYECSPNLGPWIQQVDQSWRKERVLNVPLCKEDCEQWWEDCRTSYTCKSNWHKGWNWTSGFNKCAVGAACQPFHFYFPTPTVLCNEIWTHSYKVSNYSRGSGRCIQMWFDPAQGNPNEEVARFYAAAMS
T5 sequence (F7BP60 entry or part of it): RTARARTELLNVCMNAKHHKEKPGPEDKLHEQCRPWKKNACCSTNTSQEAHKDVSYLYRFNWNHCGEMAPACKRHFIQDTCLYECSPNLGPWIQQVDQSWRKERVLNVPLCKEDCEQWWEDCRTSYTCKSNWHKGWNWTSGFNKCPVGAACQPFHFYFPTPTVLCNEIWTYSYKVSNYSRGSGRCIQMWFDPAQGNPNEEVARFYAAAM
T2 sequence (P15328 25-233 limits assumed): as the sequence (F7BP60 entry or part of it) above, with T2I, R4W, K37R, P146A, Y171H counted along it
T3 sequence (A0A2K5U044 entry or part of it): as the sequence (F7BP60 entry or part of it) above

B1: P01500002 = h2 variant 2HFO42: 2HF042(Q1E, Q5V, A14P, V40A, L79Y, K83R, K105Q, Q108L)-HIS6 (VHH)
VHH: EVQLVESGGGLVQPGGSLRLSCAASGSGFSGMIMGWYRQAPGKQRELVATVTSHGTTNYADSVKGRFTISRDNAKNTVYLQMNSLRPEDTAVYYCNAHFPGIYWGQGTLVTVSS
notes: Entry includes the tag
EC50 (read off the curve) [1]: ~5 nM
IC50 [2]: 43.7 nM
koff [3]: 0.00307 s⁻¹
koff [4]: 0.0132 s⁻¹

B2: P01500006: 2HF042(Q1E, Q5V, A14P, V40A, L79Y, K83R, Q108L)-FLAG3-HIS6 (VHH)
VHH: B1 VHH with Q106K
notes: Entry includes the tags; also called P0150006
koff [5]: 0.00174 s⁻¹
koff [6]: 0.00158 s⁻¹
koff [7]: 0.00947 s⁻¹
EC50 [8]: 32.4 nM
MFI top [8]: 35300 MFI
koff [9]: 0.00189 s⁻¹
koff [10]: 0.00967 s⁻¹
Kd [11]: 6.77 nM
koff [11]: 0.00249 s⁻¹
kon [11]: 367000 M⁻¹ s⁻¹
Kd [12]: 27.7 nM
koff [12]: 0.016 s⁻¹
kon [12]: 577000 M⁻¹ s⁻¹
koff [3]: 0.00252 s⁻¹
koff [4]: 0.012 s⁻¹
koff [13]: 0.00162 s⁻¹
nm (Fold wt) [13]: 1
koff [14]: 0.0132 s⁻¹
nm (Fold wt) [14]: 1

B6: P01500003: 2HF019(Q1E, Q5V, Q108L)-HIS6 (VHH)
VHH: EVQLVESGGGLVQPGGSLRVSCAASGFPFSTVYMSWVRQAPGKGLEWVSGINNDGGVIDYADSVKGRFTISRDNAKNTLYLQLNSLKPEDTALYFCARGRSFVATLSSSLRGQGTLVTVSS
notes: Entry includes the tag; also called 2HFO19 (P01500003); Nb19
IC50 [2]: 7.55 nM
koff [3]: 0.00052 s⁻¹
koff [4]: 0.00499 s⁻¹

Now from value to binder:

EC50 (read off the curve) [1]: ~4 nM
IC50 [2]: 39 nM
koff [3]: 0.00193 s⁻¹
koff [4]: 0.0102 s⁻¹
B3: P01500004: 2HF042(Q1E, Q5V, Q108L)-HIS6 (VHH)
VHH: B1 VHH with P14A, A40V, Y79L, R86K, Q106K
notes: Entry includes the tag; also called 2HFO42 (P01500004); Nb42

koff [5]: 0.000447 s⁻¹
koff [6]: 0.000454 s⁻¹
koff [7]: 0.00282 s⁻¹
EC50 [8]: 5.6 nM
MFI top [8]: 54900 MFI
Kd [11]: 2.52 nM
koff [11]: 0.000571 s⁻¹
kon [11]: 227000 M⁻¹ s⁻¹
Kd [12]: 13.8 nM
koff [12]: 0.00434 s⁻¹
kon [12]: 315000 M⁻¹ s⁻¹
Kd [15]: 8.78 nM
koff [15]: 0.0031 s⁻¹
kon [15]: 353000 M⁻¹ s⁻¹
koff [3]: 0.00042 s⁻¹
koff [4]: 0.00304 s⁻¹
B4: P01500008: 2MFR67(Q1E, Q5V, Q108L)-FLAG3-HIS6 (VHH)
VHH: B1 VHH with P14A, D72E, N73D, A74S, Y79L, R86K, Q106K
notes: Entry includes the tags; also called 2MFR67-Flag3-His6

normalized additional binding in 2nd association [16]: 0%
normalized additional binding in 2nd association [17]: 100%
normalized additional binding in 2nd association [18]: 100%
normalized additional binding in 2nd association [19]: 100%
B5: VHH 2MFR32 (VHH)
VHH: QVQLQESGGGLVQAGGSLRVSCAASGFPFSTVYMSWVRQAPGKGLEWVSGINSNGGVIDYADSVKGRFTISRDNANNTLYLQLNSLKPEDTALYFCAKGRAFVATMPSSLRGQGTQVTVSS
notes: also called 2MF832
